# Results published in patent US12698495B2, “Engineered tryptophan decarboxylases and uses thereof for synthesizing tryptamine analogs” (priority 2022, dated 2026).
# Residue numbers refer to the chain shown, from its start. Numbers in names are those of the source.
# B1: 2B9: engineered PfTrpB variant 2B9, SEQ ID NO:3 (protein, listed as Pyrococcus furiosus)
# chain: MWFGEFGGQYVPETLVGPLKELEKAYKRFKDDEEFNRQLNYYLKTWAGRPTPLYYAKRLTEKIGGAKVYLKREDLVHGGAHKTNNAIGQALLAKLMGKTRLIAETGAGQHGVATAMAGALLGMKVDIYMGAEDVERQKMNVFRMKLLGANVIPVNSGSRTLKDAINEALRDWVATFEYTHYLIGSVVGPHPYPTIVRDFQSVIGREAKAQILEAEGQLPDVIVACVGGGSNAMGIFYPFVNDKKVKLVGVEAGGKGLESGKHSASLNAGQVGVSHGMLSYFLQDEEGQIKPSHSIAPGLDYPGVGPEHAYLKKIQRAEYVAVTDEEALKAFHELSRTEGIIPALESAHAVAYAMKLAKEMSRDEIIIVNLSGRGDKDLDIVLKASGNVLEHHHHHH
# B2: H275E (protein, listed as Pyrococcus furiosus)
# chain: B1 chain with H275E
# Columns and labels:
# serotonin receptor = settings: known from literature (ref. 43); cited from earlier work
# [1] = cited from earlier work
# [2] = PfTrpB variant activity and promiscuity; format: biochemical, Pyrococcus furiosus
molecule,measurement,setting,value
CCOc1ccc2[nH]cc(CCN)c2c1 [5-OEt-tryptamine],serotonin receptor activity,serotonin receptor,agonists
COc1ccc2[nH]cc(CCN)c2c1 [5-OMe-tryptamine],serotonin receptor activity,serotonin receptor,agonists
B1,activity with a variety of substrate analogs,[1]; 75° C.,high activity
same,activity at lower temperatures,[1]; lower temperatures than 75° C.,activity decreases
B2,activity and promiscuity of PfTrpB variant in SUMS,[2],generally activated
same,activity of PfTrpB mutant,[2]; 75° C.,activating
